These results are taken from paper PMC3448026.

Substrate in data set [1]: O=C(O)C(=O)/C=C1\C=C[C@H](O)CC1
In words: purified protein. Format: biochemical, Bacillus subtilis. The following applies: 2 mM NADH (saturating), 50 mM potassium phosphate pH 8.0, 1 µM BacG.

Substrate in data set [2]: O=C(O)C(=O)/C=C1/C=C[C@H](O)CC1
Description: purified protein. The following applies: 2 mM NADH (saturating), 50 mM potassium phosphate pH 8.0, 5 µM BacG. It counts as biochemical, Bacillus subtilis.

What is called kcat is the number of substrate molecules converted per active site and unit of time at saturation.

B1: BacG (Bacillus subtilis subsp. subtilis str. 168) (protein)
chain: MSKRTAFVMGASQGIGKAIALKLADQHFSLVINSRNLDNIESVKEDILAKHPEASVIVLAGDMSDQHTRAGIFQKIESQCGRLDVLINNIPGGAPDTFDNCNIEDMTATFTQKTVAYIDAIKRASSLMKQNEFGRIINIVGNLWKEPGANMFTNSMMNAALINASKNISIQLAPHNITVNCLNPGFIATDRYHQFVENVMKKNSISKQKAEEQIASGIPMKRVGSAEETAALAAFLASEEASYITGQQISADGGSMKSI
On to B1, for which the turnover number (kcat) was found to be 1.19 s⁻¹ in data set [1] and 0.553 s⁻¹ in data set [2].
